Test system: mutant form of α-Gal A expressed in HEK-293 cells
Assay: HEK assay (GLP HEK / Migalastat Amenability Assay): α-Gal A activity in lysates of transiently transfected HEK-293 cells incubated with or without 10 μM migalastat
Type: cell-based, human
Conditions: for Absolute increase (% WT): 10 μM migalastat versus baseline; for Relative increase: 10 μM migalastat α-Gal A activity relative to baseline; for 10 μM migalastat α-Gal A activity (% WT): 5 days; for 10 μM migalastat α-Gal A activity (% WT) / Baseline α-Gal A activity (% WT): percentage of baseline wild-type α-Gal A activity; for 10 μM migalastat α-Gal A activity (% WT) / Baseline α-Gal A activity (% WT) / Baseline α-Gal A activity / 10 μM migalastat α-Gal A activity: mean ± SEM; for Baseline α-Gal A activity (% WT): absence of migalastat; for Baseline α-Gal A activity / 10 μM migalastat α-Gal A activity: lysates of HEK-293 cells transfected with the mutant form; for Baseline α-Gal A activity: incubated 5 days in the absence of migalastat; for 10 μM migalastat α-Gal A activity: incubated 5 days with 10 μM migalastat
Procedure, shortened: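 HEK-293 cells transiently transfected with mutant α-Gal A and incubated with or without 10 μM migalastat; lysate activity given as nmol free 4-MU released per mg protein per hour. Values are mean±SEM.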

Row | Molecule | Absolute increase (% WT) | Relative increase | 10 μM migalastat α-Gal A activity (% WT) | Baseline α-Gal A activity (% WT) | Baseline α-Gal A activity [nmol/mg/h] | 10 μM migalastat α-Gal A activity [nmol/mg/h]
1 | S176R (protein) MQLRNPELHLGCALALRFLALVSWDIPGARALDNGLARTPTMGWLHWERFMCNLDCQEEPDSCISEKLFMEMAELMVSEGWKDAGYEYLCIDDCWMAPQRDSEGRLQADPQRFPHGIRQLANYVHSKGLKLGIYADVGNKTCAGFPGSFGYYDIDAQTFADWGVDLLKFDGCYCDRLENLADGYKHMSLALNRTGRSIVYSCEWPLYMWPFQKPNYTEIRQYCNHWRNFADIDDSWKSIKSILDWTSFNQERIVDVAGPGGWNDPDMLVIGNFGLSWNQQVTQMALWAIMAAPLFMSNDLRHISPQAKALLQDKDVIAINQDPLGKQGYQLRQGDNFEVWERPLSGLAWAVAMINRQEIGGPRSYTIAVASLGKGVACNPACFITQLLPVKRKLGFYEWTSRLRSHINPTGTVLLQLENTMQMSLKDLL | 22.0 | 1.3 | 88.3 ± 3.3 | 66.3 ± 2 | 22675 ± 886 | 30159 ± 1226
2 | L177V (protein) MQLRNPELHLGCALALRFLALVSWDIPGARALDNGLARTPTMGWLHWERFMCNLDCQEEPDSCISEKLFMEMAELMVSEGWKDAGYEYLCIDDCWMAPQRDSEGRLQADPQRFPHGIRQLANYVHSKGLKLGIYADVGNKTCAGFPGSFGYYDIDAQTFADWGVDLLKFDGCYCDSVENLADGYKHMSLALNRTGRSIVYSCEWPLYMWPFQKPNYTEIRQYCNHWRNFADIDDSWKSIKSILDWTSFNQERIVDVAGPGGWNDPDMLVIGNFGLSWNQQVTQMALWAIMAAPLFMSNDLRHISPQAKALLQDKDVIAINQDPLGKQGYQLRQGDNFEVWERPLSGLAWAVAMINRQEIGGPRSYTIAVASLGKGVACNPACFITQLLPVKRKLGFYEWTSRLRSHINPTGTVLLQLENTMQMSLKDLL | 22.9 | 1.3 | 91.8 ± 2.8 | 68.9 ± 3.2 | 23616 ± 1282 | 31347 ± 1132
3 | L177S (protein) MQLRNPELHLGCALALRFLALVSWDIPGARALDNGLARTPTMGWLHWERFMCNLDCQEEPDSCISEKLFMEMAELMVSEGWKDAGYEYLCIDDCWMAPQRDSEGRLQADPQRFPHGIRQLANYVHSKGLKLGIYADVGNKTCAGFPGSFGYYDIDAQTFADWGVDLLKFDGCYCDSSENLADGYKHMSLALNRTGRSIVYSCEWPLYMWPFQKPNYTEIRQYCNHWRNFADIDDSWKSIKSILDWTSFNQERIVDVAGPGGWNDPDMLVIGNFGLSWNQQVTQMALWAIMAAPLFMSNDLRHISPQAKALLQDKDVIAINQDPLGKQGYQLRQGDNFEVWERPLSGLAWAVAMINRQEIGGPRSYTIAVASLGKGVACNPACFITQLLPVKRKLGFYEWTSRLRSHINPTGTVLLQLENTMQMSLKDLL | 35.9 | 1.7 | 87.2 ± 4.5 | 51.4 ± 1.7 | 17445 ± 533 | 29868 ± 1909
4 | E178K (protein) MQLRNPELHLGCALALRFLALVSWDIPGARALDNGLARTPTMGWLHWERFMCNLDCQEEPDSCISEKLFMEMAELMVSEGWKDAGYEYLCIDDCWMAPQRDSEGRLQADPQRFPHGIRQLANYVHSKGLKLGIYADVGNKTCAGFPGSFGYYDIDAQTFADWGVDLLKFDGCYCDSLKNLADGYKHMSLALNRTGRSIVYSCEWPLYMWPFQKPNYTEIRQYCNHWRNFADIDDSWKSIKSILDWTSFNQERIVDVAGPGGWNDPDMLVIGNFGLSWNQQVTQMALWAIMAAPLFMSNDLRHISPQAKALLQDKDVIAINQDPLGKQGYQLRQGDNFEVWERPLSGLAWAVAMINRQEIGGPRSYTIAVASLGKGVACNPACFITQLLPVKRKLGFYEWTSRLRSHINPTGTVLLQLENTMQMSLKDLL | 16.4 | 1.2 | 90.9 ± 4.8 | 74.5 ± 3.4 | 25584 ± 1225 | 31222 ± 1660
5 | L177M (protein) MQLRNPELHLGCALALRFLALVSWDIPGARALDNGLARTPTMGWLHWERFMCNLDCQEEPDSCISEKLFMEMAELMVSEGWKDAGYEYLCIDDCWMAPQRDSEGRLQADPQRFPHGIRQLANYVHSKGLKLGIYADVGNKTCAGFPGSFGYYDIDAQTFADWGVDLLKFDGCYCDSMENLADGYKHMSLALNRTGRSIVYSCEWPLYMWPFQKPNYTEIRQYCNHWRNFADIDDSWKSIKSILDWTSFNQERIVDVAGPGGWNDPDMLVIGNFGLSWNQQVTQMALWAIMAAPLFMSNDLRHISPQAKALLQDKDVIAINQDPLGKQGYQLRQGDNFEVWERPLSGLAWAVAMINRQEIGGPRSYTIAVASLGKGVACNPACFITQLLPVKRKLGFYEWTSRLRSHINPTGTVLLQLENTMQMSLKDLL | 27.9 | 1.4 | 97.4 ± 2.7 | 69.5 ± 2.3 | 23730 ± 946 | 33080 ± 829
6 | E178A (protein) MQLRNPELHLGCALALRFLALVSWDIPGARALDNGLARTPTMGWLHWERFMCNLDCQEEPDSCISEKLFMEMAELMVSEGWKDAGYEYLCIDDCWMAPQRDSEGRLQADPQRFPHGIRQLANYVHSKGLKLGIYADVGNKTCAGFPGSFGYYDIDAQTFADWGVDLLKFDGCYCDSLANLADGYKHMSLALNRTGRSIVYSCEWPLYMWPFQKPNYTEIRQYCNHWRNFADIDDSWKSIKSILDWTSFNQERIVDVAGPGGWNDPDMLVIGNFGLSWNQQVTQMALWAIMAAPLFMSNDLRHISPQAKALLQDKDVIAINQDPLGKQGYQLRQGDNFEVWERPLSGLAWAVAMINRQEIGGPRSYTIAVASLGKGVACNPACFITQLLPVKRKLGFYEWTSRLRSHINPTGTVLLQLENTMQMSLKDLL | 14.5 | 1.2 | 84.8 ± 6.8 | 70.3 ± 4.9 | 23910 ± 1511 | 29125 ± 2326
7 | L177W (protein) MQLRNPELHLGCALALRFLALVSWDIPGARALDNGLARTPTMGWLHWERFMCNLDCQEEPDSCISEKLFMEMAELMVSEGWKDAGYEYLCIDDCWMAPQRDSEGRLQADPQRFPHGIRQLANYVHSKGLKLGIYADVGNKTCAGFPGSFGYYDIDAQTFADWGVDLLKFDGCYCDSWENLADGYKHMSLALNRTGRSIVYSCEWPLYMWPFQKPNYTEIRQYCNHWRNFADIDDSWKSIKSILDWTSFNQERIVDVAGPGGWNDPDMLVIGNFGLSWNQQVTQMALWAIMAAPLFMSNDLRHISPQAKALLQDKDVIAINQDPLGKQGYQLRQGDNFEVWERPLSGLAWAVAMINRQEIGGPRSYTIAVASLGKGVACNPACFITQLLPVKRKLGFYEWTSRLRSHINPTGTVLLQLENTMQMSLKDLL | 37.6 | 1.7 | 88.2 ± 2 | 50.5 ± 2.6 | 17321 ± 1025 | 30075 ± 867
8 | L177F (protein) MQLRNPELHLGCALALRFLALVSWDIPGARALDNGLARTPTMGWLHWERFMCNLDCQEEPDSCISEKLFMEMAELMVSEGWKDAGYEYLCIDDCWMAPQRDSEGRLQADPQRFPHGIRQLANYVHSKGLKLGIYADVGNKTCAGFPGSFGYYDIDAQTFADWGVDLLKFDGCYCDSFENLADGYKHMSLALNRTGRSIVYSCEWPLYMWPFQKPNYTEIRQYCNHWRNFADIDDSWKSIKSILDWTSFNQERIVDVAGPGGWNDPDMLVIGNFGLSWNQQVTQMALWAIMAAPLFMSNDLRHISPQAKALLQDKDVIAINQDPLGKQGYQLRQGDNFEVWERPLSGLAWAVAMINRQEIGGPRSYTIAVASLGKGVACNPACFITQLLPVKRKLGFYEWTSRLRSHINPTGTVLLQLENTMQMSLKDLL | 38.7 | 1.9 | 84 ± 2.3 | 45.3 ± 2.1 | 15605 ± 911 | 28893 ± 1210
9 | E178G (protein) MQLRNPELHLGCALALRFLALVSWDIPGARALDNGLARTPTMGWLHWERFMCNLDCQEEPDSCISEKLFMEMAELMVSEGWKDAGYEYLCIDDCWMAPQRDSEGRLQADPQRFPHGIRQLANYVHSKGLKLGIYADVGNKTCAGFPGSFGYYDIDAQTFADWGVDLLKFDGCYCDSLGNLADGYKHMSLALNRTGRSIVYSCEWPLYMWPFQKPNYTEIRQYCNHWRNFADIDDSWKSIKSILDWTSFNQERIVDVAGPGGWNDPDMLVIGNFGLSWNQQVTQMALWAIMAAPLFMSNDLRHISPQAKALLQDKDVIAINQDPLGKQGYQLRQGDNFEVWERPLSGLAWAVAMINRQEIGGPRSYTIAVASLGKGVACNPACFITQLLPVKRKLGFYEWTSRLRSHINPTGTVLLQLENTMQMSLKDLL | 18.6 | 1.5 | 61.7 ± 6.4 | 43.1 ± 4.7 | 17470 ± 2323 | 26566 ± 4263
